Test results taken from patent US20100041597A1, “PEPTIDES TARGETED TO PROTEIN KINASE C ISOFORMS AND USES THEREOF” (priority 2005, published 2010).
Entries after “also recorded” stand apart in the source; their conditions may differ.

The substances below were run against PKC-δ (Homo sapiens, UniProt Q05655) (assay: ELISA-based competitive binding assay with purified PKC isoform). Details: PRE 50 μM; purified PKC-δ; may be overestimated (longer colour development).
Parameters: key to Affinity for PKC isoform δ: —: no detectable affinity; Low to very low affinity at 10X or 20X or both PRE concentrations in at least one cell line in the cell extract assay; Low affinity in purified isoform assay.; Moderate affinity at 10X or 20X or both PRE concentrations in at least one cell line in the cell extract assay.; High affinity at 10X or 20X or both PRE concentrations in at least one cell line in the cell extract assay; High affinity in purified isoform assay
Description: (§1) Peptides PRE 1, 2, 3, 4, 5, 6, 7, 8, 9, 10, 11, 12 and 13 (see Table 3) were tested for their ability to interfere with binding of PKC isoform-specific antibodies to their target PKC isoforms using a competitive binding assay and purified PKC isoforms.
(§2) Procedure: Competitive binding was assessed using a 96 well plate ELISA-based assay as described below.
(§3) Greiner 96 well ELISA plates were coated with the appropriate PKC isoform diluted in PBSN (PBS with Calcium/Magnesium+0.05% Sodium azide w/w). 50 μL/well at 250 ng/mL was used. Control wells contained PBSN only. Plates were incubated overnight at 4° C.
(§4) The plates were washed 3 times with 200 μL of dH2O per well, then 100 μL of blocking solution was added per well and the plate incubated for 1 h at 37° C. The washing steps with dH2O were repeated and 50 μL of the appropriate PRE solution (PRE stock solution [20 mM in DMSO] diluted in PBSN) was added and the plate incubated for 1 h at room temperature.
(§5) After incubation, 5 μL of 1.1:400 anti-PKC (isoform specific antibody) was added per well (to provide a final concentration of 1:4000). For PKC-epsilon, 1.1:800 dilution was used and for PKC-zeta a 1.1:100 dilution was used due to high and low binding affinity, respectively. The plates were then incubated 1 h at room temperature, followed by washing with dH2O as described above.
(§6) 50 μL of 1:1000 dilution of Alkaline Phosphatase (AP) conjugated antibody (anti-rabbit for all except zeta, which was anti-goat) was then added and the plate incubated for 1 h at room temperature. Washing with dH2O was then repeated. Finally, 100 μL of pNPP solution in pNPP buffer (2 mM MgCl2, 100 mM Sodium bicarbonate in water, pH 9.8) was added to all wells and incubated for 8 minutes for α, βI, βII ε, and ζ, or for 15-20 mins for […] (until sufficient coloration is observed). The reaction was stopped by addition of Stop solution (2N NaOH) and the absorbance at 405 nm was read on a Galaxy Plate reader.
(§7) Controls were PKC without PRE; blank controls, and controls containing the final concentrations of DMSO used for solubilizing the PREs. The non-specific binding capacity related to DMSO was also measured.
(§8) The antibodies used were as follows: anti-PKC α (Cat. No. SC-208); anti-PKC βI (Cat. No. SC-209); anti-PKC βII (Cat. No. SC-210); anti-PKC δ (Cat. No. SC-213); anti-PKC ε (Cat. No. SC-214); anti-PKC ζ (Cat. No. SC-216-G) (all from Santa Cruz Biotechnology, Inc.). The AP-conjugated antibodies were obtained from Jackson Immuno Research Laboratories (West Grove, Pa.).
(§9) Calculations: The OD values measured at 405 nm represent the free PKC coated per well.
(§10) OD405 PKC alone−Blank OD405 of each sample=OD405 coated isoform
(§11) (OD405 of sample X/OD405 coated isoform)×100=% n that represents the percentage of X binding compared to control.
(§12) 100-% n measures the relative binding capacity of X towards the tested isoform.
(§13) The apparent binding capacity of the DMSO samples was then subtracted from X binding capacity.
(§14) All measurements were made in triplicate and the values in the table represent the averaged calculated binding capacity values after subtraction of the DMSO apparent binding capacity (averaged from 12 values, respectively 10.80, 11.20 and 16.40 corresponding to the concentrations of DMSO used to dilute the […] at 200, 100 and 50 μM respectively). The results allow for quantitative comparison of the binding capacity of each PRE towards an individual isoform within each table, but not among isoforms due to differences in sensitivity of the specific antibodies toward the secondary antibody. This applies particularly to PKC-delta. As noted above, the colour development duration was increased 2-3 times and, as a result, the OD405 measurements may be overestimated for this isoform.

PKC-δ, sequence (Q05655 whole entry, canonical isoform): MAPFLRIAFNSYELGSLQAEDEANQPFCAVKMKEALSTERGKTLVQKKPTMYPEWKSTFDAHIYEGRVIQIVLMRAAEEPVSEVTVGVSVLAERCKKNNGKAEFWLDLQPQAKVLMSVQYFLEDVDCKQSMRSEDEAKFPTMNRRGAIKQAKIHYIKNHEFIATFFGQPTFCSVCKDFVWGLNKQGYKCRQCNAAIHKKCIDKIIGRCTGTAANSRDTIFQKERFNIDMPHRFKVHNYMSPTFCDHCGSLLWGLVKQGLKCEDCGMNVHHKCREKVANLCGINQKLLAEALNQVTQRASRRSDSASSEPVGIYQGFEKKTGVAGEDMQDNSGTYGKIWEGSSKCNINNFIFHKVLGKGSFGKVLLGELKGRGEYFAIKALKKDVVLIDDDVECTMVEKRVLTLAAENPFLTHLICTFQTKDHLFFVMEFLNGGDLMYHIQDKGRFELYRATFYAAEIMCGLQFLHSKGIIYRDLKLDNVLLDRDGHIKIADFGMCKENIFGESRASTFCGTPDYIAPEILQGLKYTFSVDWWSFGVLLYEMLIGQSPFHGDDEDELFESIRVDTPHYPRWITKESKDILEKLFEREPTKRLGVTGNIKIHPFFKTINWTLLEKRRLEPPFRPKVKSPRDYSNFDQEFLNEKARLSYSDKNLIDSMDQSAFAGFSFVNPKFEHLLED

Substance	calculated binding capacity (100-% n) after subtraction of the DMSO apparent binding capacity
Ac-isigilgnadk-NH2 [PRE 9]	16.23

Same assay, conditions: PRE 50 μM; purified PKC-δ; may be overestimated (longer colour development); read-out: calculated binding capacity (100-% n) after subtraction of the DMSO apparent binding capacity

Substance	inhibition at 50 µM [%]
Ac-KDAQNLIGISI-NH2 [PRE 4, Ac-KDAQNLIGISI-NH2]	29.2
Ac-AKGIQEVKGGDAQNLIGISI-NH2 [PRE 3]	48.3
Ac-AKGIQEVKGGKDAQNLIGISI-NH2 [PRE 5]	0.2

Same assay, conditions: PRE 100 μM; purified PKC-δ; may be overestimated (longer colour development)

Substance	calculated binding capacity (100-% n) after subtraction of the DMSO apparent binding capacity
Ac-isigilgnadk-NH2 [PRE 9]	19.27

Same assay, conditions: PRE 100 μM; purified PKC-δ; may be overestimated (longer colour development); read-out: calculated binding capacity (100-% n) after subtraction of the DMSO apparent binding capacity

Substance	inhibition at 100 µM [%]
Ac-KDAQNLIGISI-NH2 [PRE 4, Ac-KDAQNLIGISI-NH2]	30.7
Ac-AKGIQEVKGGDAQNLIGISI-NH2 [PRE 3]	56
Ac-AKGIQEVKGGKDAQNLIGISI-NH2 [PRE 5]	0

Same assay, conditions: PRE 200 μM; purified PKC-δ; may be overestimated (longer colour development)

Substance	calculated binding capacity (100-% n) after subtraction of the DMSO apparent binding capacity
Ac-isigilgnadk-NH2 [PRE 9]	9.95
Ac-ISIGILNQADK-NH2 [PRE 10]	9.47

Same assay, conditions: PRE 200 μM; purified PKC-δ; may be overestimated (longer colour development); read-out: calculated binding capacity (100-% n) after subtraction of the DMSO apparent binding capacity

Substance	inhibition at 200 µM [%]
Ac-KDAQNLIGISI-NH2 [PRE 4, Ac-KDAQNLIGISI-NH2]	17.3
Ac-AKGIQEVKGGDAQNLIGISI-NH2 [PRE 3]	57
Ac-AKGIQEVKGGKDAQNLIGISI-NH2 [PRE 5]	4.31

Same assay, conditions: Purified isoform; Table 20

Substance	Affinity for PKC isoform δ
Ac-KDAQNLIGISI-NH2 [PRE 4, Ac-KDAQNLIGISI-NH2]	H
Ac-isigilgnadk-NH2 [PRE 9]	L
Ac-ISIGILQNADK-NH2 [PRE 7]	—
Ac-ISIGILNQADK-NH2 [PRE 10]	—
ILEDKGGDAQNLIGISI [PRE 8]	—
Ac-RDAQNLIGISI-NH2 [PRE 11]	H
Ac-KDANQLIGISI-NH2 [PRE 6]	L
RRKKGGKDFVVKR [PRE 1]	H
Ac-AKGIQEVKGGDAQNLIGISI-NH2 [PRE 3]	H
Ac-AKGIQEVKGGKDAQNLIGISI-NH2 [PRE 5]	L
Ac-RDAQNLI-NH2 [PRE 13]	L
Ac-KDAQNLI-NH2 [PRE 12]	L

Same assay, conditions: purified isoform, Tables 14-19

Substance	targeting of / affinity for PKC-δ
Ac-KDAQNLIGISI-NH2 [PRE 4, Ac-KDAQNLIGISI-NH2]	targeted most strongly; also recorded: showed an affinity for PKC-6
Ac-RDAQNLIGISI-NH2 [PRE 11]	targeted most strongly
RRKKGGKDFVVKR [PRE 1]	targeted most strongly
Ac-AKGIQEVKGGDAQNLIGISI-NH2 [PRE 3]	targeted most strongly

The substances below were run against T1, PKC-ζ (Homo sapiens, UniProt Q05513) in the same assay as above. Details: PRE 50 μM; purified PKC-ζ.
T1 sequence (Q05513 1-592): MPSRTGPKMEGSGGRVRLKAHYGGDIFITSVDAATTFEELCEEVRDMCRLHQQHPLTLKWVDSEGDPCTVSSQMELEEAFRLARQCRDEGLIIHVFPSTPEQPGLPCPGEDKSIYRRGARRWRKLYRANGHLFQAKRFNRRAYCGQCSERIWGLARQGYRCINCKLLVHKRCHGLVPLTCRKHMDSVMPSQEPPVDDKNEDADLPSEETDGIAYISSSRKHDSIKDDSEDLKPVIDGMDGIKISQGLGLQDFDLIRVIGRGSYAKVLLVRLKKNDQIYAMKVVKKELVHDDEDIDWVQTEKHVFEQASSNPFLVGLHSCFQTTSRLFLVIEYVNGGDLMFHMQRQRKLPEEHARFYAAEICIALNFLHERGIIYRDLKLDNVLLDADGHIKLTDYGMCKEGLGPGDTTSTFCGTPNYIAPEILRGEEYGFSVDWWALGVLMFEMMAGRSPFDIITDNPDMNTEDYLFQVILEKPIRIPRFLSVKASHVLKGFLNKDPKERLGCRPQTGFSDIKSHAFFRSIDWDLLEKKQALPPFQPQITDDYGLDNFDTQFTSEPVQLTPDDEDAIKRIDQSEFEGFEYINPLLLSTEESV
Parameters: key to Affinity for PKC isoform ζ: —: no detectable affinity; Low to very low affinity at 10X or 20X or both PRE concentrations in at least one cell line in the cell extract assay; Low affinity in purified isoform assay.; Moderate affinity at 10X or 20X or both PRE concentrations in at least one cell line in the cell extract assay.; High affinity at 10X or 20X or both PRE concentrations in at least one cell line in the cell extract assay; High affinity in purified isoform assay
Description: as §1, §2, §3, §4, §5, §6, §7, §8, §9, §10, §11, §12, §13, §14

Substance	calculated binding capacity (100-% n) after subtraction of the DMSO apparent binding capacity
RRKKGGKDFVVKR [PRE 1]	4.11
Ac-KDAQNLI-NH2 [PRE 12]	4.20

Same assay, conditions: PRE 50 μM; purified PKC-ζ; read-out: calculated binding capacity (100-% n) after subtraction of the DMSO apparent binding capacity

Substance	inhibition at 50 µM [%]
Ac-KDAQNLIGISI-NH2 [PRE 4, Ac-KDAQNLIGISI-NH2]	0
Ac-AKGIQEVKGGDAQNLIGISI-NH2 [PRE 3]	14
Ac-AKGIQEVKGGKDAQNLIGISI-NH2 [PRE 5]	0

Same assay, conditions: PRE 100 μM; purified PKC-ζ

Substance	calculated binding capacity (100-% n) after subtraction of the DMSO apparent binding capacity
Ac-KDAQNLI-NH2 [PRE 12]	8.77

Same assay, conditions: PRE 100 μM; purified PKC-ζ; read-out: calculated binding capacity (100-% n) after subtraction of the DMSO apparent binding capacity

Substance	inhibition at 100 µM [%]
Ac-KDAQNLIGISI-NH2 [PRE 4, Ac-KDAQNLIGISI-NH2]	0
Ac-AKGIQEVKGGDAQNLIGISI-NH2 [PRE 3]	23.9
Ac-AKGIQEVKGGKDAQNLIGISI-NH2 [PRE 5]	0

Same assay, conditions: PRE 200 μM; purified PKC-ζ

Substance	calculated binding capacity (100-% n) after subtraction of the DMSO apparent binding capacity
Ac-KDAQNLI-NH2 [PRE 12]	0.33

Same assay, conditions: PRE 200 μM; purified PKC-ζ; read-out: calculated binding capacity (100-% n) after subtraction of the DMSO apparent binding capacity

Substance	inhibition at 200 µM [%]
Ac-KDAQNLIGISI-NH2 [PRE 4, Ac-KDAQNLIGISI-NH2]	5.85
Ac-AKGIQEVKGGDAQNLIGISI-NH2 [PRE 3]	29.1
Ac-AKGIQEVKGGKDAQNLIGISI-NH2 [PRE 5]	0

Same assay, conditions: Purified isoform; Table 20

Substance	Affinity for PKC isoform ζ
Ac-KDAQNLIGISI-NH2 [PRE 4, Ac-KDAQNLIGISI-NH2]	—
Ac-isigilgnadk-NH2 [PRE 9]	—
Ac-ISIGILQNADK-NH2 [PRE 7]	—
Ac-ISIGILNQADK-NH2 [PRE 10]	—
ILEDKGGDAQNLIGISI [PRE 8]	—
Ac-RDAQNLIGISI-NH2 [PRE 11]	—
Ac-KDANQLIGISI-NH2 [PRE 6]	—
RRKKGGKDFVVKR [PRE 1]	—
Ac-AKGIQEVKGGDAQNLIGISI-NH2 [PRE 3]	H
Ac-AKGIQEVKGGKDAQNLIGISI-NH2 [PRE 5]	—
Ac-RDAQNLI-NH2 [PRE 13]	—
Ac-KDAQNLI-NH2 [PRE 12]	—

Same assay, conditions: purified isoform, Tables 14-19

Substance	targeting of PKC-ζ
Ac-AKGIQEVKGGDAQNLIGISI-NH2 [PRE 3]	targeted by PRE 3 only
